Assay [1] addresses GFRα1 soluble form (Homo sapiens) (UniProt P56159). Nature of the assay: SPR. As to conditions: cited from earlier work.
Another assay concerns the target T1, GFRα1 (Homo sapiens, UniProt P56159).
T1 chain: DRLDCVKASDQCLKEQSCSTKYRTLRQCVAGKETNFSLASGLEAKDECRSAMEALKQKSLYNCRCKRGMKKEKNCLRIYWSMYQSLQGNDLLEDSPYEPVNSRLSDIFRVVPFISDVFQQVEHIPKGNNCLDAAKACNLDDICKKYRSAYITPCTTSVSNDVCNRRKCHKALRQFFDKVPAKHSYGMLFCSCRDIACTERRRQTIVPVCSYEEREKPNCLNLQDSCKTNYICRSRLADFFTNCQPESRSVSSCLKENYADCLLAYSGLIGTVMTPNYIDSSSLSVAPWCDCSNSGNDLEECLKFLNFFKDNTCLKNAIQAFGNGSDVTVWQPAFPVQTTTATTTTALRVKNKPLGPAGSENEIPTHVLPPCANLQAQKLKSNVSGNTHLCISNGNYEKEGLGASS
Nature of the assay: MST.

Regarding GDNF (from UniProt P39905), in assay [1], the Kd is 0.63 nM.

B1: GDNF (protein)
chain: KRSPDKQMAVLPRRERNRQAAAANPENSRGKGRRGQRGKNRGCVLTAIHLNVTDLGLGYETKEELIFRYCSGSCDAAETTYDKILKNLSRNRRLVSDKVGQACCRPIAFDDDLSFLDDNLVYHILRKHSAKRCGCI
Regarding B1, binding in the assay with GFRα1 was characterised by a dissociation constant (Kd) of 260 nM.

As usually defined, the Kd is the concentration at which binding is half-saturated.

Values taken from publication PMC10565809 (2022).
